Assay results published in the supplement of paper PMC10567573.

B1: KRT33B (parent)
chain: YQSYFKTIEELQQKILCSKSENAR
B2: OAS1 (parent)
chain: YIGTHEYPHFSHRPSTLQAASTPQ

Variants of: B1
Test: protein stability index of a GFP-peptide fusion (GPS, HEK-293T) (PSI 1-6); higher = more stable
Conditions: c terminus: a fixed tail appended
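Note: lentivirally expressed fusions sorted by FACS into six bins by GFP to DsRed ratio, PSI derived from sequencing read proportions per bin multiplied by bin number.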

Protein stability index: each site, then its substitutions
K6: L 1.77 | S 2.59 | R 1.11 | D 2.08 | F 2.25 | P 2.74
Q12: G 1.73 | A 2.78 | I 1.94 | C 1.58 | V 1.98 | P 1.8 | T 1.96 | H 1.78 | N 1.89 | L 1.79 | E 2.6 | S 1.96 | K 2.06
E21: Q 2.1 | I 1.6 | T 1.77 | Y 1.75 | N 1.79 | P 1.8 | H 1.79 | R 1.77
R24: V 1.98 | S 2.07 | T 1.76 | D 1.78 | A 1.94 | H 1.71 | F 1.47 | G 2.55 | C 2.4 | E 1.88 | W 1.15 | Q 2.34 | N 2.02 | K 1.84
Y1: T 3.28 | V 2.68 | F 1.93 | N 3.72 | I 2.2 | P 3.84 | K 2.88 | D 4.28
C17: K 2.19 | Y 1.61 | L 2.87 | T 2.19 | G 1.87 | E 2.49 | N 1.95 | I 2.07 | D 1.65 | S 1.7 | M 2.54 | R 2.14 | W 1.53
E10: P 2.39 | N 2.1 | M 1.67 | H 1.65 | Q 2.69 | G 2.6 | R 1.89 | C 1.72 | S 1.65 | D 2.36 | I 1.66

Variants of: B2
Test: as above
Conditions: c terminus: a fixed tail appended

Protein stability index of substitutions, site by site:
T4: Y 1.84 | I 1.84 | V 1.76 | C 2.12 | M 2.15 | H 1.95 | A 1.86 | Q 1.89 | S 1.89 | G 2.27 | N 2.2 | W 2.89 | K 2.15 | F 2.11 | P 2.34 | D 2.56 | E 2.55 | L 1.81 | R 1.7
H5: K 2.47 | L 2.12 | P 2.45 | N 2.03 | W 2.29 | R 2.35 | E 2.53 | T 2.3 | G 2.09 | M 2.14 | Q 2.38 | C 1.75 | I 1.93 | V 2.23 | S 1.94 | A 1.72 | F 2.28 | D 2.52
Y1: R 3.84 | C 3.33 | D 4.09 | L 3.54 | A 4.01 | F 1.49 | H 3.64 | W 2.73 | T 4.07 | I 3.58 | G 4.34 | S 4 | V 3.64 | N 4.04 | P 4.32 | K 3.52 | Q 4.21 | E 4.08 | M 3.66
I2: G 3.15 | T 2.17 | C 1.87 | F 2.67 | A 2.29 | P 2.47 | L 2.73 | Q 2.59 | S 2.49 | D 3.48 | V 2.61 | K 3.47 | E 4.18 | W 2.66 | Y 3.27 | R 3.68 | M 2.92 | H 1.44 | N 3.29
G3: M 1.86 | L 2.19 | F 2.35 | I 2.6 | S 2.03 | A 2.11 | N 2.3 | Y 1.6 | W 1.83 | V 1.95 | P 2.28 | K 2.48 | T 2.29 | D 1.75 | C 1.97 | E 1.8 | Q 2.32 | H 1.89 | R 2.07
